{"source": "paper PMC11211449", "target": "recombinant prefusion RV3 F antigen (human respirovirus 3 fusion glycoprotein, prefusion conformation) (human respirovirus 3 (RV3))", "experiment": "cryo-EM structure"}
{"substance": "recombinant prefusion RV3 F antigen (human respirovirus 3 fusion glycoprotein, prefusion conformation) (natural protein)", "values": [{"measurement": "stoichiometry N", "value": 3}]}
